Results from patent publication EP4428150A1 (Peptide Logic LLC, dated 2024).

Legend:
[1] = molecular target: T1, human prolactin (human, UniProt P01236 29-227); experiment: bio-layer interferometry (Octet-RED96), antibody captured on anti-human IgG Fc sensors, 1:1 global fit
T1 construct: also called hPRL; Human PRL
T1 sequence (looked up): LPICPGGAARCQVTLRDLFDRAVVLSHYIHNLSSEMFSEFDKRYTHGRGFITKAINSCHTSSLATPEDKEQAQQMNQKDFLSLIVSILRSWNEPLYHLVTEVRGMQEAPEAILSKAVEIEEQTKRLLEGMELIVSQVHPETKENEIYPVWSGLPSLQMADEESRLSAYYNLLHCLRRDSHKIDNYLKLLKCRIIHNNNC

[2] = molecular target: T2, cynomolgus monkey PRL (cynomolgus monkey, UniProt A0A2K5X975 30-228); experiment: bio-layer interferometry (Octet-RED96), antibody captured on anti-human IgG Fc sensors, 1:1 fit
T2 construct: also called Cynomolgus PRL; cynomolgus PRL
T2 sequence: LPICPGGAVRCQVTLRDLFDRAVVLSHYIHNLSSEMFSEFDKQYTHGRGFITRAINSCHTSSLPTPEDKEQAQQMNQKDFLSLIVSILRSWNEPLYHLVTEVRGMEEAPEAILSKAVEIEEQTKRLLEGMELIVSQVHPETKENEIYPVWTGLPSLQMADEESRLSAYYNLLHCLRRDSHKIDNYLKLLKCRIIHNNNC

[3] = molecular target: T3, mouse PRL (mouse, UniProt P06879 30-226); experiment: cell-based or functional assay
T3 sequence (looked up): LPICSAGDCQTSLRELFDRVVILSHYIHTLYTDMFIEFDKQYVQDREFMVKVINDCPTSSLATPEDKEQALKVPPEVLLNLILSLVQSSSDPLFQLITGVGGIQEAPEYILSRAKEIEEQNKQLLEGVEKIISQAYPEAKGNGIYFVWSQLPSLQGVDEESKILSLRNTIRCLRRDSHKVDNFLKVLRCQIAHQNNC

[4] = molecular target: T1, human prolactin; experiment: cell-based or functional assay
[5] = molecular target: human placental lactogen (human, UniProt P0DML2 27-217); experiment: cell-based or functional assay
Sequence of human placental lactogen (P0DML2 27-217 limits assumed): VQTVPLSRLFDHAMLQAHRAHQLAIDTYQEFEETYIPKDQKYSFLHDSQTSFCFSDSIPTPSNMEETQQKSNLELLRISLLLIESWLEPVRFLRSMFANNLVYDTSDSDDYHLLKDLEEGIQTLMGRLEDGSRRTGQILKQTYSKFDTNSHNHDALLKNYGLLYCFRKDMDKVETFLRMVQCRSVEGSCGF

[6] = molecular target: human growth hormone (human, UniProt P01241 27-217); experiment: cell-based or functional assay
Sequence of human growth hormone (P01241 27-217 limits assumed): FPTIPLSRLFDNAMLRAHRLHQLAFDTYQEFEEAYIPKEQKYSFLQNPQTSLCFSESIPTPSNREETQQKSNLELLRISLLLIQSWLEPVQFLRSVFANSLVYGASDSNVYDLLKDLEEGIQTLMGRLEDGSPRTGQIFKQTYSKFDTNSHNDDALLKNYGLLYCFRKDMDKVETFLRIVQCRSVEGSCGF

[7] = molecular target: T2, cynomolgus monkey PRL; experiment: cell-based or functional assay
[8] = molecular target: T3, mouse PRL; experiment: bio-layer interferometry (Octet-RED96), antibody captured on anti-human IgG Fc sensors; kinetics not determined

Kd [1]: 0.621 nM
koff [1]: 0.000215 s⁻¹
kon [1]: 347000 M⁻¹ s⁻¹
Kd [2]: 0.565 nM
koff [2]: 0.000307 s⁻¹
kon [2]: 543000 M⁻¹ s⁻¹
IC50 in the in vitro CHO-hPRLR phospho-STAT5 cell signaling assay [3]: > 150 nM
IC50 in the in vitro CHO-hPRLR phospho-STAT5 cell signaling assay [4]: 3.1 nM
IC50 in the in vitro CHO-hPRLR phospho-STAT5 cell signaling assay [5]: > 3620 nM
IC50 in the in vitro CHO-hPRLR phospho-STAT5 cell signaling assay [6]: > 150 nM
IC50 in the in vitro CHO-hPRLR phospho-STAT5 cell signaling assay [7]: 4.7 nM
Kd [8]: > 100 nM
B1: Antibody 37 (antibody, human IgG4 S228P, kappa, V domains shown)
VH: QVQLVQSGAEVKKPGASVKVSCKASGYTFSNFWIEWVRQAPGQRLEWMGEIFPGTGSTYYTEKFKVRVTITRDTSASTAYMELSSLRSEDTAVYYCARRGYSDSWFAHWGQGTLVTVSS
VL: DIQMTQSPSSLSASVGDRVTITCRASESVDMYGKSFMHWYQQKPGKAPKLLIYRASTLESGVPSRFSGSGSGTDFTLTISSLQPEDFATYYCQQNVEAPLTFGGGTKVEIKR
notes: Humanized IgG4(S228P), IGHV1-3 heavy and IGKV1-39 light frameworks; also called humanized anti-hPRL antibody
